From the Human Domainome abundance scans (Beltran et al. 2025)
± gives the uncertainty stated by the source.

B1: SAM and SH3 domain-containing protein 1, residues 630 to 700; numbered along this chain, O94885 (parent)
chain: GRPPQPKSVEDLLDRINLKEHMPTFLFNGYEDLDTFKLLEEEDLDELNIRDPEHRAVLLTAVELLQEYDSN

Variants of: B1
Assay: abundance fitness (aPCA) (normalised: wild type 0, dead -1); higher = more abundant; growth selection in yeast, the domain comes from the species named
Conditions: Homo sapiens

| Variant | abundance fitness |
| --- | --- |
| GRPPQPKSVEDLLDRINLKEHMPTFLFNGYEDLDTFKLLEEEDLDELNIRDPEHRAVLLTAVELLQEYTSN [D69T] | -0.358 ± 0.045 |
| GRPPQPKSVEDLLDRINLKEHMPTFLFNGYEDLDTFKLGEEEDLDELNIRDPEHRAVLLTAVELLQEYDSN [L39G] | -0.812 ± 0.067 |
| GRPPQPKSVEDLLDRINLKKHMPTFLFNGYEDLDTFKLLEEEDLDELNIRDPEHRAVLLTAVELLQEYDSN [E20K] | -0.755 ± 0.11 |
| GRPPQPKSVEDLLDRINLKLHMPTFLFNGYEDLDTFKLLEEEDLDELNIRDPEHRAVLLTAVELLQEYDSN [E20L] | -0.559 ± 0.063 |
| GRPPQPKSVEDLLDRINLKEHMPTFLFNGYEDLDTFKLLEEEDLDELNIRDPEHRAVLLTHVELLQEYDSN [A61H] | -0.497 ± 0.066 |
| GRPPQPKSVEDLLDRINLKEHMPTFLFNGYEDLDTFKLLEVEDLDELNIRDPEHRAVLLTAVELLQEYDSN [E41V] | -0.495 ± 0.056 |
| GRPPQPKSVEDLLDRINLKEHMPTFLFNGYEDLDTFKLLEFEDLDELNIRDPEHRAVLLTAVELLQEYDSN [E41F] | -0.971 ± 0.091 |
| GRPPQPKSVEDLLDRINLKEHMPTFLFNGYEDLDTFKLLEEEDLDELNIRDPEHRAVLLTAVRLLQEYDSN [E63R] | 0.133 ± 0.035 |
| GRPPQPKSVEDLLDRINLKEHMPTFLFNGYEDLDTFKLLEEEDLDELNIRDPEHRAVLLTAVGLLQEYDSN [E63G] | -0.15 ± 0.042 |
| GRPPQPKSVEDLLDRINLKEHMPTALFNGYEDLDTFKLLEEEDLDELNIRDPEHRAVLLTAVELLQEYDSN [F25A] | -0.837 ± 0.072 |
| GRPPQPKSVEDLLDRINLKEHMPTKLFNGYEDLDTFKLLEEEDLDELNIRDPEHRAVLLTAVELLQEYDSN [F25K] | -0.784 ± 0.071 |
| GRPPQPKSVEDLLDRINLKEHMPTFLFNGYEDLDTFKLLEEEDLDEWNIRDPEHRAVLLTAVELLQEYDSN [L47W] | -0.959 ± 0.092 |
| GRPPQPKSVEDLLDRINLKEHMPTFLFNGYEDLDTFKLLEEEDLDEFNIRDPEHRAVLLTAVELLQEYDSN [L47F] | -0.828 ± 0.061 |
| GRPPQPKSVEDLLDRINLKEHMPTFLFNGYEDLDTFKLLEEEDLDELNIRDPEHRAVLLTAAELLQEYDSN [V62A] | -0.091 ± 0.049 |
| GRPPQPKSVEWLLDRINLKEHMPTFLFNGYEDLDTFKLLEEEDLDELNIRDPEHRAVLLTAVELLQEYDSN [D11W] | -0.793 ± 0.093 |
| GRPPQPKSVEELLDRINLKEHMPTFLFNGYEDLDTFKLLEEEDLDELNIRDPEHRAVLLTAVELLQEYDSN [D11E] | 0.148 ± 0.049 |
| GRPPQPKSVEDLLDRINLKETMPTFLFNGYEDLDTFKLLEEEDLDELNIRDPEHRAVLLTAVELLQEYDSN [H21T] | -0.685 ± 0.061 |
| GRPPQPKSVEDLLDRINLKEHMPTFLFNGYEDLDTFKLLEEEDLDELNRRDPEHRAVLLTAVELLQEYDSN [I49R] | -0.831 ± 0.053 |
| GRPPQPKSVEDLLDRINLKEHMPTFLFNGYEDLDTFKLLEEEDLDELNLRDPEHRAVLLTAVELLQEYDSN [I49L] | -0.868 ± 0.052 |

| Variant | abundance fitness |
| --- | --- |
| GRPPQPKSVEDLLDRINLKEHMPTFLFNGYEDLDTFKLLEEEDLDELNIRDPEHRAVLLTAVEVLQEYDSN [L64V] | -0.234 ± 0.039 |
| GRPPQPKSVEDLLDRINLKEHMPTFLFNGYEDLDTFKLLEEEDLDELNIRDPEHRAVLLTAVECLQEYDSN [L64C] | 0.019 ± 0.044 |
| GRPPQPKSVEDLLDRWNLKEHMPTFLFNGYEDLDTFKLLEEEDLDELNIRDPEHRAVLLTAVELLQEYDSN [I16W] | -0.611 ± 0.088 |
| GRPPQPKSVEDLLDRINLKEHMPTFLFNGYEDLDTLKLLEEEDLDELNIRDPEHRAVLLTAVELLQEYDSN [F36L] | -0.365 ± 0.043 |
| GRPPQPKSVEDLLDRINLKEHMPTFLFNGYEDLDTHKLLEEEDLDELNIRDPEHRAVLLTAVELLQEYDSN [F36H] | -0.638 ± 0.081 |
| GRPPQPKSVEDLLDRINLKEHMPTFLFNGYEDLDTKKLLEEEDLDELNIRDPEHRAVLLTAVELLQEYDSN [F36K] | -1.19 ± 0.14 |
| GRPPQIKSVEDLLDRINLKEHMPTFLFNGYEDLDTFKLLEEEDLDELNIRDPEHRAVLLTAVELLQEYDSN [P6I] | -0.151 ± 0.056 |
| GWPPQPKSVEDLLDRINLKEHMPTFLFNGYEDLDTFKLLEEEDLDELNIRDPEHRAVLLTAVELLQEYDSN [R2W] | -0.643 ± 0.11 |
| GRPPQPKSVEDLLDRINLKEHMPTFLFNGYEDLDTFKLLEEEDLDELNIRHPEHRAVLLTAVELLQEYDSN [D51H] | -0.447 ± 0.052 |
| GRPPQPKSVEDLLDRINLKEHMPTFLFNGYEDLDTFKLLEEEDLDELNIRVPEHRAVLLTAVELLQEYDSN [D51V] | -0.553 ± 0.051 |
| GRPPQPKSVEDLLDRINLKEHMPTFLFNGYEDLDTFKLLEEEDLDELNIRMPEHRAVLLTAVELLQEYDSN [D51M] | -0.845 ± 0.077 |
| GRPPQPKSVEDLLDRINLKEHMPTFLFNGYEDLDTFKLLEEEDLDELNIRDPEHRAVLLTAVELCQEYDSN [L65C] | -0.538 ± 0.07 |
| GRPPQPKSVEDLLDRINLKEHMPTFLFNGYEDLDTFKLLEEEDLDELNIRDPEHRAVLLTAVELEQEYDSN [L65E] | -0.758 ± 0.097 |
| GRPPQPKSVEDLLDRINLKEHMRTFLFNGYEDLDTFKLLEEEDLDELNIRDPEHRAVLLTAVELLQEYDSN [P23R] | -0.225 ± 0.045 |
| GRPPQPKSVEDLLDRINLKEHMFTFLFNGYEDLDTFKLLEEEDLDELNIRDPEHRAVLLTAVELLQEYDSN [P23F] | -0.434 ± 0.057 |
| GRPPQPKSVEDLLDRINLKEHMPTFLFNGYEDLDTFKLLEEEDLDELNIRDPEHRAVDLTAVELLQEYDSN [L58D] | -0.347 ± 0.08 |
| GRPPQPKSVEDLLDRINLKEHMPTFLFNGYEDLDTFKLLEEEDNDELNIRDPEHRAVLLTAVELLQEYDSN [L44N] | -0.822 ± 0.081 |
| GRPPQPKSVEDLLDRINLKEHMPTFLFNGMEDLDTFKLLEEEDLDELNIRDPEHRAVLLTAVELLQEYDSN [Y30M] | -0.568 ± 0.074 |
| GRPPQPKSVEDLLDRIELKEHMPTFLFNGYEDLDTFKLLEEEDLDELNIRDPEHRAVLLTAVELLQEYDSN [N17E] | -0.333 ± 0.063 |
